For series [1], the target named is T1, purified human C1q protein (human, UniProt P02745 23-245; P02746 28-253; P02747 29-245). The series can be described thus: immunostaining of cells or tissue.
Series [2] deals with the molecule itself. The series can be described thus: negative staining electron microscopy.
Series [3] has as its target T1, purified human C1q protein. The series is described as follows: pull-down.

T1 sequence (P02745 23-245, chain 1 of 3): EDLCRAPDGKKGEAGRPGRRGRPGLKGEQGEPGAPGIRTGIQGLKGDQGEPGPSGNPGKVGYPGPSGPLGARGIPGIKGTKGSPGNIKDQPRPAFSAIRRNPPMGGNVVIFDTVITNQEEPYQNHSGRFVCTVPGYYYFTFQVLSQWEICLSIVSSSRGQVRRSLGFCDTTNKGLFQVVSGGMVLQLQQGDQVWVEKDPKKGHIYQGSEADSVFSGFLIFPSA
T1 sequence (P02746 28-253, chain 2 of 3): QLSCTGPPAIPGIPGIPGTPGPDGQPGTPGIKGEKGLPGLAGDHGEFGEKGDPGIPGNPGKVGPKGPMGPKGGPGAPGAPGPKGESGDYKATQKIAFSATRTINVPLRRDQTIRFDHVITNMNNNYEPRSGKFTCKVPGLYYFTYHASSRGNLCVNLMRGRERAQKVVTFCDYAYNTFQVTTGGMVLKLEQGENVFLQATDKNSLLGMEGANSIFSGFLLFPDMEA
T1 sequence (P02747 29-245, chain 3 of 3): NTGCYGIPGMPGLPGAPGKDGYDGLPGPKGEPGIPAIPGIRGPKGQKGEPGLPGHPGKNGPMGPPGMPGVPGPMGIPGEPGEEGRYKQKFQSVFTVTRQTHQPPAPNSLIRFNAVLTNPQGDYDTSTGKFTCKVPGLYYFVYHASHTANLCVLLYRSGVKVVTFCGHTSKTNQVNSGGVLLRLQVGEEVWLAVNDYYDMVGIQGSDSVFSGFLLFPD

B1: Nptxr and Nptx2 co-expressed on a stable tetracycline-inducible CHO cell-line (Nptxr/x2) (complex, human)
chain 1: MKFLAVLLAAGMLAFLGAVICIIASVPLAASPARALPGGADNASVASGAAASPGPQRSLSALHGAGGSAGPPALPGAPAASAHPLPPGPLFSRFLCTPLAAACPSGAQQGDAAGAAPGEREELLLLQSTAEQLRQTALQQEARIRADQDTIRELTGKLGRCESGLPRGLQGAGPRRDTMADGPWDSPALILELEDAVRALRDRIDRLEQELPARVNLSAAPAPVSAVPTGLHSKMDQLEGQLLAQVLALEKERVALSHSSRRQRQEVEKELDVLQGRVAELEHGSSAYSPPDAFKISIPIRNNYMYARVRKALPELYAFTACMWLRSRSSGTGQGTPFSYSVPGQANEIVLLEAGHEPMELLINDKVAQLPLSLKDNGWHHICIAWTTRDGLWSAYQDGELQGSGENLAAWHPIKPHGILILGQEQDTLGGRFDATQAFVGDIAQFNLWDHALTPAQVLGIANCTAPLLGNVLPWEDKLVEAFGGATKAAFDVCKGRAKA
chain 2: GAQDSPAPGSRFVCTALPPEAVHAGCPLPAMPMQGGAQSPEEELRAAVLQLRETVVQQKETLGAQREAIRELTGKLARCEGLAGGKARGAGATGKDTMGDLPRDPGHVVEQLSRSLQTLKDRLESLEHQLRANVSNAGLPGDFREVLQQRLGELERQLLRKVAELEDEKSLLHNETSAHRQKTESTLNALLQRVTELERGNSAFKSPDAFKVSLPLRTNYLYGKIKKTLPELYAFTICLWLRSSASPGIGTPFSYAVPGQANEIVLIEWGNNPIELLINDKVAQLPLFVSDGKWHHICVTWTTRDGMWEAFQDGEKLGTGENLAPWHPIKPGGVLILGQEQDTVGGRFDATQAFVGELSQFNIWDRVLRAQEIVNIANCSTNMPGNIIPWVDNNVDVFGGASKWPVETCEERLLDL
B1: the Kd (commonly the constant that tells how readily two partners part at equilibrium) in series [1] is approximately 2 nM.

B2: neuronal pentraxin 2 (Nptx2), purified recombinant, His-tagged (natural protein, UniProt P47972 16-431, looked up)
chain: GAQDSPAPGSRFVCTALPPEAVHAGCPLPAMPMQGGAQSPEEELRAAVLQLRETVVQQKETLGAQREAIRELTGKLARCEGLAGGKARGAGATGKDTMGDLPRDPGHVVEQLSRSLQTLKDRLESLEHQLRANVSNAGLPGDFREVLQQRLGELERQLLRKVAELEDEKSLLHNETSAHRQKTESTLNALLQRVTELERGNSAFKSPDAFKVSLPLRTNYLYGKIKKTLPELYAFTICLWLRSSASPGIGTPFSYAVPGQANEIVLIEWGNNPIELLINDKVAQLPLFVSDGKWHHICVTWTTRDGMWEAFQDGEKLGTGENLAPWHPIKPGGVLILGQEQDTVGGRFDATQAFVGELSQFNIWDRVLRAQEIVNIANCSTNMPGNIIPWVDNNVDVFGGASKWPVETCEERLLDL
B2: the stoichiometry N (as a rule, the number of molecules, sites or subunits per partner or assembly) in series [2] is 6.

B3: Rat Nptx2 pentraxin domain (X2-PD) (domain or fragment, UniProt P97738 224-425, looked up)
chain: DAFKVSLPLRTNYLYGKIKKTLPELYAFTICLWLRSSASPGIGTPFSYAVPGQANEIVLIEWGNNPIELLINDKVAQLPLFVSDGKWHHICITWTTRDGMWEAFQDGEKLGTGENLAPWHPIKPGGVLILGQEQDTVGGRFDATQAFVGELSQFNIWDRVLRAQEIINIANCSTNMPGNIIPWVDNNVDVFGGASKWPVETC
As to B3, the binding result in series [3] is “binds”.

(Values after publication doi:10.1101/2022.09.22.509106 (bioRxiv, 2022).)
